In the nanobody polyreactivity screen of Harvey et al. (2022):

Test: yeast display, Sf9 membrane polyspecificity reagent, FACS + sequencing; frameworks hold sequencing errors
Summary of the method: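 Genes from sorted yeast were amplified by colony PCR, read by MiSeq 2 × 250 sequencing and filtered on CDR length. These cells carried a synthetic nanobody library in Saccharomyces cerevisiae BJ5465 and were sorted by FACS into low and high (top ~1%) gates on anti-HA and streptavidin fluorescence. Polyreactivity is labelled according to the gate of origin.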

Sequence	polyreactivity (PSR sort gate)
QVQLQESVGGLVQAGGSLRLSCAASGSIFKVVDMGLYRQAPAKEREFVATIGEGGNTYYADSVKGRFTISRDNAKNTVYLQMNSLKPEDTAVYFYAVVLGTSYRYTYWGQGTLVTVSS	low polyreactivity
QVQLQESVGGLVQAGGSLRLSCAASGTISPQPAMGWYRPAPGKEREFVAGIDTGAITNYADSVKGRFTISRDNAKNTVYLQMNSLKPEDTAVYYCAVFPAAYDYYERYYTYWGLGTQVTVSS	low polyreactivity
QVQLQGSGGGLVQAAGSLRLSCAASGYIFQNVPMGWNRQAPGKERELVAGIDNGTSTNYADSVNGRFTISRDNAKKTVYLQMNSLKPEDTAVYYCAAAGQADDTLGYWGQGTQVTVSR	low polyreactivity
QVQLQGSGGGLVQAGGSLRLSCAASGNIFDADIKGWYRQAPGKEIELVASITDGGSTNYADSVKGRFTISRDNAKNTVYLQMYSLKHEDTAVYYCAAIAYPDIPTYFDYDSDCFYWSQGTQVTVSS	high polyreactivity
QVQLQGSGGGLVQAGGSLRMSCAASAYIFQNVPKGLNRKEPGKERELVAGIDNGTSTNYADSVNGRFTISRDNAKNSVYLEMKSLKPVDTAVYYCAAAGQADDTLGYWGQGTQVTVSS	low polyreactivity
QVQLQGSGGGLVQAGGSLRQSCAASGYIFQNVPMGWNRQAPGKERELVAGIDNGTSTNYADSVNGRFTISRDNAKNTVYLQMNSLKPEDTAVYYCAAAGQADDTLGYWGQGTQVTVSS	low polyreactivity
QVQLQVSGGDLLQAGGSLRLSCAASGTIYGHTSMGWYRQAPGKEREFVAAITDGGNTNYADSVKGRFTISRDNAINTVYLQMISLKPEDTAVYYCEVLFSDVAYYAYWGQGTQVTVSS	low polyreactivity
QVQLQVSGGGLVQAGGSLRLNSAASGAIFLTSEMGWYRQAPGKERELVAAIATGTSTNYADSVKGLFTISRDNAKNTVYLQMNSLKPEDTAVYYCATYHYWGQGTQVTVSS	low polyreactivity
QVQLRESGGGLVQAGGSLSLSCAASGTIFYSRYMGWYRQAPGKEREFVASISSGGNTNYADSVKGRFTISRDNAKNTVYLQMNSLKPEDTAVYYCAVNTGLITTCPYWGQGTQVTVSS	high polyreactivity
QVQLVAGGGLVQAGGSLRLSCAASGSIFYSNAMGWYRQAPGKERELVAAISFSGGSTYYADSVKGRFTISRDNAKNTVYLQMNSLKPEDTAVYYCAAEFYKRKFGPFEYWGQGTQVTVSS	low polyreactivity
QVQLVASGGALVQAGGSLRLSCAASGFIFDYYAMGRYRPAPGKERELVAAITSRSGSTYYADSVKGRFTISRDNAKNTVYLQMNSLKPEDTAVYYCARRFKYGSTAWRFYYWGQGTQVTVSS	high polyreactivity
QVQLVASGGGLVQAGGSLRISSAASGGIFPQYAMGWYRQAPGKERELVAAISRRGGSTYYADSVKGRFTISRDNAKNTVYLQMNSLKPEDTAVYFCNAGGSDYGVSNKYNSWGQGTQVTVSS	high polyreactivity
QVQLVASGGGLVQAGGSLRLSCAASGRTSWYYAMGWYRHAPGKERELVAAITASGGSTYADSVKGRFTISRDNAKNTVYLQMNSLKPEDTAVYYCAAERPYSRVGYYYWGQGTQVTVSS	high polyreactivity
QVQLVASGGGLVQAGGSLRLSCAATGNTLGYYDMGWYRQAPGKERELVAGITFRGGRTYYADSVKGRFTISRDNPKNTVYLQMKSLKPEDTAVYYCAKRTRYSPGHDYWGLGTQVTVSS	high polyreactivity
QVQLVASGGGLVQAGGSLRLSSAASGFTFYGYAMGWYSQARGKERELVATIRRSTGSTYYADSVKGRFTISRDNAKNTVYLQINSLIPEDTAVYYCATRVWFPITSYDYWGQGTQVTVSS	low polyreactivity
QVQLVASGGGLVQAGGSVRLSCAASGFIVNYYAMGWYRQAPGKEGELLAAISSGGSTYYADSVKGRFTISRDNAKNTVYLQMNSLKPEDTAVYYCAARYTDLRLARYYYDYYYWGQGTQVTVSS	high polyreactivity
QVQLVASGGGLVQARGSLRLSCAASGRTFTYYAMGWYRQAPGKESELVAAISDSGGSTYYADSVKGRFTISRDNAKNTVYVQMNSLKPEDTAVYYCAAYRYVGPWTDVGSPDYDDWGQGTQVTVSS	low polyreactivity
QVQLVASGGGLVQSGGSLRLSCAASGSTITWYAMGWYRQAPGKDRELVARISSGDRPNYADSVKGRFTISRDNAKNTVYLQMNSLKPEDTAVYYCNADYGQPSYYDDGDYWGQGTQVTVSS	low polyreactivity
QVQLVDSAGGLVHAGGSLRLSCAASGLTFYSNTMGWYRPPPGKERELVAGISWGGDTTYYADSVKGRFTISRDNAKNTVYLQMNSLKPEDTAVYYCAADRSYWRHRYSYDYWGQGTQVTVSS	low polyreactivity
QVQLVDSAGGLVQAGGSLRLSCAASGITFGYYAMGWYRQAPGKERELVAAITSSGSTYYADSVKGRFTISRDNAKNTVYLQMNSLNPEDTAVYYCAARSWYSKYYYWGQGTQVTVSS	high polyreactivity
QVQLVDSAGGLVQAGGSLRLSCAASGLNYAIYAMGWYREAPGKERELVAAIRWSGASTYADSVKGRFTISRDNAKNTVYLQMNSLKPEDTAVYYCAADDLLDYDYWGQGTQVTVSS	low polyreactivity
QVQLVDSAGGLVQAGGSLRLSCAASGRTYVVNTRGWSRQAPGKERELVASISSGTTNYADSVKGRFTISRDNAKNTVYLQMNSLKPVDTAVYYCNTDGGDHPTARYGYWGQGTQVTVSS	high polyreactivity

Sequence	polyreactivity (PSR sort gate)
QVQLVDSGAGLVQAGGSLRIICAASVRTFPRNAMGWYRQAPGKEMEMVAAITGSGGSTYYADSVKGRFTISRDNAKNTVYLQMNSLKPEDTAVYYCAARGPSRRRDGSDYWGQGTQVTVSS	high polyreactivity
QVQLVDSGAGLVQAGGSLSLTCAASGYTFYANAMGWYRQAPGKERELVAGINRSGSTYYADSVKGRFTISRDNAKNTVYLQMNSLKPEDTAVYYCATAWHRGVRGRTSGAFDYWGQGTQVTVSS	high polyreactivity
QVQLVDSGGCLVQAGRSLRLSCAASGSIYVPNAMGWYRQAPRKERDLVAGISRGGSTNYADSVKGRFTISRDNAKNSVYLQMKRLKPEDTAVYYCARDSRTIRYYAWFYPFRYDYWGQGTQVTVSS	low polyreactivity
QVQLVDSGGGIVQAGGSLRLSCAASGRIFKLYAMGRYRQAPGKERELVAAISKSGGNTYADSVKGRFTISRDNAKNSVYLQMNSLKPEDTAVYYCAATVQSTSDPFDYWGQGTQVTVSS	low polyreactivity
QVQLVDSGGGLDQAGGSLRLSCSASGIIFRGNAMGWYRQAPGKEREFVAAIALRGSRSYYADSVKGRFTISRDNAKNTVYLQMISLKPEDTAVYYCAARYYSEPNAYYYWGQGTQLTVSS	high polyreactivity
QVQLVDSGGGLVHAGGSLRLSCAASGSIFGANTMGWYRPAPGKERELVAGITSRARTYYADSVKGRFTISRDNANNNVYLQMNSLKPEDTAVYYCAAKYAWRRYGYWGQGTQVTVSS	high polyreactivity
QVQLVDSGGGLVHAGGSLRLSCAASGSSFTFYAMGWYRQAPGKERELVARISITGGSTYYADSVKGRFTISRDNAKNTVYLHMNSLKPEDTAVYYCAARYYGEHYDYWGQGTQVTVSS	low polyreactivity
QVQLVDSGGGLVHAGGSLRLSCASSGSIFNYYAMGCYRQPPGKVRELVAAISYRTGSTYYADSVKGRFTISRDNAKNTVYLQMTSLKPEDTSVYYCAADTRYGYGYWGQGTQVTVSS	high polyreactivity
QVQLVDSGGGLVHAGGSLRLSCHASGRTFRGNAMGWYRQAPGKESELVAAITRRTASTYYADSVKGRFTISRDNAKNTVYLQMNSLKPEDTAVYDCAADSYMKRPYYAGYYYWGQGTQVTVSS	high polyreactivity
QVQLVDSGGGLVKAGCSLRLSCAASGRIFNSYAMGLYRQAPGKETELVAAITWSGDRTNYADSVKGRFTISRDNANNTVYVQMNSLKPEDTAVYYCAADRVRSVRYGYWGKGTQVTVSS	low polyreactivity
QVQLVDSGGGLVKAGGSLRLSCAASGSTFAYYAMGWYRQAPGKERELVAAISWNGGSTYYADSVKGRFTISRDNAKNTVYLQMNSLKPEDTAVYYCAAEVYDYTYVVTFLYDYWGQGTQVTVSS	high polyreactivity
QVQLVDSGGGLVQAGCSLRISCAASGSIYTTYAMGWYRQAPGKERELVAALTRSGGRTYYADSVKGRFTISRDNAKYTVYLQMTSLKPEDTAVDDCNAYGYRTWWDDFKLDYWGQGTQVTVSS	high polyreactivity
QVQLVDSGGGLVQAGGRLRLTCAASGSTFGPNAMGWYSPAPGKERELVADISGGSTNYADSVKGRFTISRDNAKNTVYLQMKSLKPEDTAVYSCATDDHVEPVRRLYGYWGQGTQVTVSS	low polyreactivity
QVQLVDSGGGLVQAGGSHRLSCAASGIIFPTYDMGWYRPAPGKERELVAAITWSTGSTTYADSVKGRFTISRDNAKNTVYLQMNSLKPEDTAVYYCNKDSEGSGGEFDDWGQGTQVTVSS	low polyreactivity
QVQLVDSGGGLVQAGGSLGLSCAASGRSFTFNAMGWYRQAPGKERELVAAISSRGDGTYYADSVKGRFTISRDNAKNNVYLQMNSLKPEDTAVYYCARYPDDYYDWGYDYWGQGTQVTVSS	low polyreactivity
QVQLVDSGGGLVQAGGSLRFSCAASGSIFPVNVMGWYRQAPGKERELVADITSTGTYYADSVKGRFTISRDNAKNTDYLQMNSLKPEDTAVYYCAKAGGSWYRRYYYWGQGTQVTVSS	high polyreactivity
QVQLVDSGGGLVQAGGSLRISCAASGFIFSSYAMGWSRQAPAKERELVAAISSRGGSTYYADSVKGRFTISRDNAKNTVYLQMNSLKPEDTAVYYCNAYLSPYVQTSRYDDDYWGQGTQVTVSS	high polyreactivity
QVQLVDSGGGLVQAGGSLRISCAASGSIFPSNAMGWYRQAPGKERELVAAINRDGITNYADSVKGRFTISRDNAKNTVYLQMNSLKPEDTAVYYCAAEFAGQWWEYGYWGQGTQVTESS	low polyreactivity
QVQLVDSGGGLVQAGGSLRITCAASGFTFTRYALGGYRQAPGKERELVAVITSTAGSTYYADSVKGRFTISRDNAKNSVYLQMNSLKAEVTAVYFCAAESLVHGDVTLEEVVAQSYDYWGQGSQVTVSS	low polyreactivity
QVQLVDSGGGLVQAGGSLRLICAASGRNLYAYSMGWYRQAPWQQRELVGAITSGASTYYADSVKGRFTISRDNAKTNVYLQMKRLKPEDTAVYYCAKSVRYYKPGYDYWGQGTQVTVSS	low polyreactivity
QVQLVDSGGGLVQAGGSLRLNFAASGLTFDRYGMGWYRQGPGKERELVAAIDGSGTSTYYADSVKGRFTISRDNAKNTVYLQMNSLKPEDTAVYYCAAGALSWYDYWGQGTQVTVSS	low polyreactivity
